Patent publication US20210333284A1, “METHODS AND MATERIALS FOR LARGE-SCALE ASSESSMENT OF LIGAND BINDING SELECTIVITY OF G-QUADRUPLEX RECOGNITION USING CUSTOM G4 MICROARRAYS” (Purdue Research Foundation, priority 2020, published 2021)

Tests used:
[1] = test system: genomic G4 sequences (folded G4 structures); test: G4 microarray binding in potassium vs lithium; parameters: species or system human; settings: GST-tagged proteins
Description: The binding specificities of several molecules were evaluated. Microarrays were preincubated with 100 mM potassium chloride to induce G4 formation. Binding of each molecule is measured by detection of fluorescence intensity at each of the microarray features. BG4 and pyridostatin were conjugated with Cy5. Cellular proteins were expressed as chimeric proteins containing GST, and binding for these proteins was detected using an anti-GST antibody conjugated with Cy5 (Materials and Methods). G4 Structures Fold on DNA Microarrays. To evaluate the utility of DNA microarrays to examine G4-binding specificity, a Cy5-labeled pyridostatin (Cy5-PDS), a small molecule known to bind broadly to G4 structures, was synthesized.^13 A Cy5 conjugated version of BG4 (Cy5-BG4), an antibody developed to bind G4s, was also obtained.^31 FIG. 1A, B presents replicate binding intensities to 15,491 DNA sequences on the Design 3 microarray using either Cy5-PDS or Cy5-BG4. For Cy5-PDS, robust binding is observed at 1 μM, with fluorescence intensities ranging over 100-fold between strongest and weakest bound DNA features. The fluorescence-binding intensities of Cy5-PDS are proportional to the concentration of pyridostatin used). […] Antibody binding to non-G4 features increases with higher concentrations, and in some cases non-G4 sequences are more strongly bound by Cy5-BG4 than G4 sequences, including multiple cytosine-rich negative control sequences. Inhibition of G4 Formation Inhibits Cy5-PDS and Cy5-BG4 Binding. Cy5-PDS and Cy5-BG4 binding under conditions that inhibit G4 formation was examined to evaluate if G4 structures form on the microarray and are required for binding. […] It is noted that many sequences, in addition to the oncogene G4 sequences, are capable of forming G4s. […] For Cy5-BG4, the decrease in binding was up to 270-fold for genomic G4 sequences, while binding to negative controls decreased up to 23-fold (FIG. 1D,). In a second experiment, Cy5-PDS binding following a primer extension reaction that produces dsDNA^24 was examined (see Materials and Methods), anticipating that dsDNA would predominate over G4 formation^13. […] 2,27,28
Microarrays were preincubated with a 100 mM potassium chloride solution for 1 h at RT to induce G4 formation. Protein binding microarray experiments were then performed as previously described.^23 Microarrays were blocked with 4% nonfat dry milk in a potassium phosphate buffer before incubation with proteins or small molecules. Expressed proteins were blocked with 4% nonfat dry milk, ssDNA, and BSA. For the validation experiments, microarrays were also treated with 100 mM lithium chloride to inhibit G4 formation. For experiments examining dsDNA, single-stranded DNA probes were made double-stranded using a primer complementary to a 24-mer constant sequence following the method described previously.^23,24 Double stranding efficiency was monitored using 4% Cy3-dCTP.
Protein or molecule-bound microarrays were scanned with the G5761A SureScan Dx Microarray Scanner System (Agilent) to detect a Cy5 signal at two laser settings (30 and 100 PMT) to ensure signal intensities were below saturation. Spot intensities from microarray images were extracted using the Agilent Feature Extraction Software and are reported as raw fluorescence units. All binding assays were performed at least twice, with high agreement between replicates (R>0.8). Microarrays with the fewest number of saturated spots were used for further analysis. Median intensity was then computed for probes containing identical sequence on each microarray. […]

MYC Pu22 G4 variants = test: G4 microarray direct binding to loop length, loop sequence and tail variants; parameters: species or system human
Description: Three Agilent DNA microarrays (TABLE 1) were designed, each with four identical sectors that contain ca.177,440 ssDNA 60-mers to examine G4-binding specificity. Arrays were designed with 9-73 replicates of each unique sequence to ensure statistical significance (TABLE 1). Each microarray contains different sets of G4 variants designed to examine several sequence parameters that affect G4 formation and binding specificity such as loop length (Design 1), loop sequence (Design 2), tail sequence (Design 2), and single nucleotide variants of six known G4s (Design 3). […]
The effect of specific sequence parameters on molecule binding was examined. […] Distinct patterns within the best-bound sequences were identified, including flexibility for the nucleotides in the central loop of the G4 and an overall preference for thymines in loops (FIG. 3F), consistent with previous findings that T nucleotides in loops have a greater propensity for folding into G4s than other nucleotides.^39 Different tail sequence ([…] (SEQ ID NO: 3)) preferences were found for all measured molecules (FIG. 3G), further underscoring the utility of the platform in identifying sequence features important for G4 binding and highlighting tail sequences in determining binding specificity. […]

Molecule	effect of lithium chloride (inhibiting G4 formation) on protein binding [1]	correlation (R) of loop length of the MYC Pu22 G4 vs binding intensity (MYC Pu22 G4 variants; loop length variants)	tail (flanking) sequence preference in direct binding (MYC Pu22 G4 variants; NNGGGTGGGGAGGGTGGGNN variants, no competitor)
FANCJ: GST-tagged human BRCA1-binding helicase-like protein / Fanconi anemia group J protein (protein, listed as Homo sapiens, GST tag) MSSMWSEYTIGGVKIYFPYKAYPSQLAMMNSILRGLNSKQHCLLESPTGSGKSLALLCSALAWQQSLSGKPADEGVSEKAEVQLSCCCACHSKDFTNNDMNQGTSRHFNYPSTPPSERNGTSSTCQDSPEKTTLAAKLSAKKQASIYRDENDDFQVEKKRIRPLETTQQIRKRHCFGTEVHNLDAKVDSGKTVKLNSPLEKINSFSPQKPPGHCSRCCCSTKQGNSQESSNTIKKDHTGKSKIPKIYFGTRTHKQIAQITRELRRTAYSGVPMTILSSRDHTCVHPEVVGNFNRNEKCMELLDGKNGKSCYFYHGVHKISDQHTLQTFQGMCKAWDIEELVSLGKKLKACPYYTARELIQDADIIFCPYNYLLDAQIRESMDLNLKEQVVILDEAHNIEDCARESASYSVTEVQLRFARDELDSMVNNNIRKKDHEPLRAVCCSLINWLEANAEYLVERDYESACKIWSGNEMLLTLHKMGITTATFPILQGHFSAVLQKEEKISPIYGKEEAREVPVISASTQIMLKGLFMVLDYLFRQNSRFADDYKIAIQQTYSWTNQIDISDKNGLLVLPKNKKRSRQKTAVHVLNFWCLNPAVAFSDINGKVQTIVLTSGTLSPMKSFSSELGVTFTIQLEANHIIKNSQVWVGTIGSGPKGRNLCATFQNTETFEFQDEVGALLLSVCQTVSQGILCFLPSYKLLEKLKERWLSTGLWHNLELVKTVIVEPQGGEKTNFDELLQVYYDAIKYKGEKDGALLVAVCRGKVSEGLDFSDDNARAVITIGIPFPNVKDLQVELKRQYNDHHSKLRGLLPGRQWYEIQAYRALNQALGRCIRHRNDWGALILVDDRFRNNPSRYISGLSKWVRQQIQHHSTFESALESLAEFSKKHQKVLNVSIKDRTNIQDNESTLEVTSLKYSTPPYLLEAASHLSPENFVEDEAKICVQELQCPKIITKNSPLPSSIISRKEKNDPVFLEEAGKAEKIVISRSTSPTFNKQTKRVSWSSFNSLGQYFTGKIPKATPELGSSENSASSPPRFKTEKMESKTVLPFTDKCESSNLTVNTSFGSCPQSETIISSLKIDATLTRKNHSEHPLCSEEALDPDIELSLVSEEDKQSTSNRDFETEAEDESIYFTPELYDPEDTDEEKNDLAETDRGNRLANNSDCILAKDLFEIRTIKEVDSAREVKAEDCIDTKLNGILHIEESKIDDIDGNVKTTWINELELGKTHEIEIKNFKPSPSKNKGMFPGFK	weakened binding	strongest effect	
DHX36: GST-tagged human DHX36/G4R1/MLEL1 helicase (protein, listed as Homo sapiens, GST tag, GST-tagged human DHX36/G4R1/MLEL1 helicase) MSYDYHQNWGRDGGPRSSGGGYGGGPAGGHGGNRGSGGGGGGGGGGRGGRGRHPGHLKGREIGMWYAKKQGQKNKEAERQERAVVHMDERREEQIVQLLNSVQAKNDKESEAQISWFAPEDHGYGTEVSTKNTPCSENKLDIQEKKLINQEKKMFRIRNRSYIDRDSEYLLQENEPDGTLDQKLLEDLQKKKNDLRYIEMQHFREKLPSYGMQKELVNLIDNHQVTVISGETGCGKTTQVTQFILDNYIERGKGSACRIVCTQPRRISAISVAERVAAERAESCGSGNSTGYQIRLQSRLPRKQGSILYCTTGIILQWLQSDPYLSSVSHIVLDEIHERNLQSDVLMTVVKDLLNFRSDLKVILMSATLNAEKFSEYFGNCPMIHIPGFTFPVVEYLLEDVIEKIRYVPEQKEHRSQFKRGFMQGHVNRQEKEEKEAIYKERWPDYVRELRRRYSASTVDVIEMMEDDKVDLNLIVALIRYIVLEEEDGAILVFLPGWDNISTLHDLLMSQVMFKSDKFLIIPLHSLMPTVNQTQVFKRTPPGVRKIVIATNIAETSITIDDVVYVIDGGKIKETHFDTQNNISTMSAEWVSKANAKQRKGRAGRVQPGHCYHLYNGLRASLLDDYQLPEILRTPLEELCLQIKILRLGGIAYFLSRLMDPPSNEAVLLSIRHLMELNALDKQEELTPLGVHLARLPVEPHIGKMILFGALFCCLDPVLTIAASLSFKDPFVIPLGKEKIADARRKELAKDTRSDHLTVVNAFEGWEEARRRGFRYEKDYCWEYFLSSNTLQMLHNMKGQFAEHLLGAGFVSSRNPKDPESNINSDNEKIIKAVICAGLYPKVAKIRLNLGKKRKMVKVYTKTDGLVAVHPKSVNVEQTDFHYNWLIYHLKMRTSSIYLYDCTEVSPYCLLFFGGDISIQKDNDQETIAVDEWIVFQSPARIAHLVKELRKELDILLQEKIESPHPVDWNDTKSRDCAVLSAIIDLIKTQEKATPRNFPPRFQDGYYS	weakened binding		preferentially binds MYC22 G4 variants containing pyrimidines (C/T) at the 5′ end of the G4
